Results as given in publication PMC7717172.

Molecular target: inactive Minerva virus protease (norovirus GII.4 NS6 protease, C139A) (norovirus GII.4 (Minerva virus))
Test: crystal structure

## inactive Minerva virus protease (norovirus GII.4 NS6 protease, C139A) (enzyme)
  stoichiometry N: 2
